Assay results: patent US20250381223A1 (UTC THERAPEUTICS SHANGHAI, published 2025)

target: T1, recombinant human CD40-His antigen protein (human, UniProt P25942 21-193); assay: ELISA; plate coated with CD40-His 2 µg/mL; HRP-anti-hFc
T1 construct: Bought protein; also called recombinant CD40-His protein; CD40 antigen; not shown: His tag
Experimental: The binding activities of the affinity-matured antibodies for antigen CD40 were detected by ELISA. The experimental procedures were as follows: [0637] 1. 50 μL of recombinant CD40-His protein at a concentration of 2 μg/mL was added to each well of an ELISA plate, and the plate was incubated at 4° C. overnight. […] 2. The next day, the ELISA plate was washed 3 times with PBST (containing 0.05% Tween-20). [0639] 3. 250 μL of 5% skim milk powder (dissolved in PBS) was added to each well of the ELISA plate, and the plate was incubated at room temperature for 2 h. [0640] 4. The plate was washed 3 times with PBST, antibodies with different dilution ratios were added to the ELISA plate at 50 μL/well, and the plate was incubated at room temperature for 60 min. [0641] 5. The plate was washed 3 times with PBST, 50 μL of HRP-anti-hFc antibody was added to each well, and the plate was incubated at room temperature for 60 min. [0642] 6. The plate was washed 3 times with PBST, 50 μL of TMB was added to each well, and after color development at room temperature, 50 μL of 2 M HCl was added to each well to stop the reaction. The plate was read at 450 nm.

Row | EC50 | Binder
1 | 0.134 µg/mL | 4052.36 (antibody, V domains shown) VH: QVQLVQSGAQVKKPGSSVKVSCKASGGTFSSYAISWVRQAPGQGLEWMGMINPSGGTTSYAQKFQGRVTMTRDTSTSTVYMELSSLRPEDTAVYYCARGFRMDQWGQGTLVTVSS VL: QSALTQPPSASGSPGQSVTISCTGTSSDVGAYNFVSWYQQHPGNAPKLIIYDVRKRPIGIPDRFSASKSGNTASLTVSGLQADDEADYYCSSYAGNNNLVFGGGTKLTVL
2 | 0.116 µg/mL | 4052.28 (antibody, V domains shown) VH: QVQLVQSGAEVKKPGSSVKVSCKASGGTFSSYAISWVRQAPGQGLEWMGMINPSGGTTSYAQKFQGRVTMTRDTSTSTVYMELSSLRPEDTAVYYCARGFRMDQWGQGTLVTVSS VL: QSALTQPPSASGSPGQSVTISCTGTSSDVGAYNFVSWYQQHPGNAPKLIIYDTRKRPSGIPDRFSASKSGNTASLTVSGLQADDEADYYCSSYAGNNNLVFGGGTKLTVL

More lines, now with the values behind:

Row | Binder | EC50
3 | 4052.12 (antibody, V domains shown) VH: QVQLVQSGAEVKKPGSSVKVSCKASGGTFSSYAVSWVRQAPGQGLEWMGMINPSGGTTSYAQKFQGRVTMTRDTSTSTVYMELSSLRPEDTAVYYCARGFRMDQWGQGTLVTVSS VL: QSALTQPPSASGSPGQSVTISCTGTSSDVGAYNFVSWYQQHPGNAPKLIIYDVRKRPRGIPDRFSASKSGNTASLTVSGLQADDEADYYCSSYAGNNNLVFGGGTKLTVL | 0.124 µg/mL
4 | 4052.25 (antibody, V domains shown) VH: QVQLVQSGAEVKKPGSSVKVSCKASGGTFSSYAISWVRQAPGQGLEWMGMINPSGGTTSYAQKFQGRVTMTRDTSTSTVYMELSSLRPEDTAVYYCARGFRMDQWGQGTLVTVSS VL: QSALTQPPSASGSPGQSVTISCTGTSSDVGAYNFVSWYQQHPGNAPKLIIYDVRKRPSGIPDRFSASKSGNTASLTVSGLQADDEADYYCSSYAGNNRLVFGGGTKLTVL | 0.111 µg/mL
